Source: US20180186871A1 (SINGAPORE HEALTH SERVICES PTE, published 2018)
Residue numbers refer to the chain shown, from its start. Where two headings read alike, the source gives them in different places. Values belong to the binder of their own block, whether it stands above or below them.

Legend:
human IL-11 [1] = target: T1, human IL-11 (human, UniProt P20809 22-199); assay: indirect ELISA on plate-coated recombinant human IL-11 (1 µg/mL), detection with HRP anti-human IgG (Fc-specific), absorbance 450-570 nm
T1 construct: In the ELISAs this is recombinant human IL-11 coated on the plate (expressed in CHO cells as Fc-tagged and tag-free versions); In the fibroblast assays it is the IL-11 produced by human fibroblasts after TGFβ1 stimulation; also called recombinant human IL-11 (GenScript Cat. No. Z03108-1); interleukin 11
T1 sequence (looked up): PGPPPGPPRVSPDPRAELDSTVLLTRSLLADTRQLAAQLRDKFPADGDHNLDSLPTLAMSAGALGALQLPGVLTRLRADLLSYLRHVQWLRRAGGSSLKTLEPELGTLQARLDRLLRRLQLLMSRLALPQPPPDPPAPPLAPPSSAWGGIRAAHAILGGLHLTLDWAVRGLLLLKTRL

human IL-11 [2] = target: T1, human IL-11; assay: as above; remark: listed apart in the source
human IL-11 [3] = target: T1, human IL-11; assay: EC50 from the indirect ELISA titrations of FIGS. 28A-28F on plate-coated recombinant human IL-11 (five-parameter fit), ng/ml is the concentration unit of FIG. 28 and paragraph 502
human IL-11 [4] = target: T1, human IL-11; assay: indirect ELISA on plate-coated recombinant human IL-11 (1 µg/mL), detection with HRP anti-human IgG (Fc-specific), absorbance 450-570 nm; remark: listed apart in the source
human IL-11 [5] = target: T1, human IL-11; assay: EC50 by indirect ELISA on plate-coated recombinant human IL-11 (five-parameter fit); no titration curve of Yu33-B4 is drawn in FIGS. 28A-28F, ng/ml is the concentration unit of FIG. 28 and paragraph 502

binding result (human IL-11 [1]): binds
B1: Yu33-H3 (IgG) (antibody, V domains shown)
VH: EVQLVESGGGFVKPGGSLSISCAASGFTFSGAYMNWVRQAPGKGLEWVAVISYDGSNKYYADSVKGRFTISRDNSKNTLYLQMNSLRAEDTAVYYCARDLYAFDIWGQGTMVTVSS
VL: LPVLTQPHSVSESPGRTVTISCTRNTGNIASNRVQWYQQRPASAPTVVIYDNHQRPSGVPDRFSGSIDTSPNSAYLTISGLKTEDEADYYCQSYDYSSVIFGGGTQLTVL
notes: also called YU33-B3/H3; #2

EC50 (read off the curve) (human IL-11 [2]): ~4 ng/mL
EC50 (human IL-11 [3]): 4.24 ng/mL
B2: YU45-F2 (Fc fusion)
VH: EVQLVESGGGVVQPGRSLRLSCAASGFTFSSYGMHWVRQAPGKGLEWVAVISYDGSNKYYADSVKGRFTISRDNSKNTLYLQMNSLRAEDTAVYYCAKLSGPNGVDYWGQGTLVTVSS
VL: QPVLTQPRSVSGSPGQSVTISCTGTSSDVGGYNYVSWYQQHPGKAPKVMIYDVSKRPSGVPDRFSGSKSGNTASLTISGLQAEDEADYYCCSYAGSYTWVFGGGTKLTVL
notes: tested as scFv-Fc (human IgG1); also called #24

binding result (human IL-11 [4]): no binding (tested: 800 ng/ml)
B3: Yu33-A2 (IgG) (antibody, V domains shown)
VH: QLQQSGPGLVKPSQTLSLTCAISGDSVSSNSAAWNWIRQSPSRGLEWLGRTYYRSKWYNDYAVSVKSRITINPDTSKNQFTLQLNSVTPDDTAVYYCARGTRGYFDYWGQGTLVTVSS
VL: DVVMTQSPSSLSASVGDRVTITCRASQDVGRYVAWYQQKVGKVPRLLIYAASALQSGVPSRFSGTASETSFTLTISSLQPEDVASYYCQQYRSAPLAFGGGTGVEIK
notes: also called #1

EC50 (read off the curve) (human IL-11 [2]): ~6 ng/mL
EC50 (human IL-11 [3]): 6.29 ng/mL
B4: Yu45-G8 (Fc fusion, not shown: a dimerising Fc or GST; small tags and cut ends)
VH: EVQLVESGGGVVQPGRSLRLSCAASGFTFSSYGMHWVRQAPGKGLEWVAVISYDGSNKYYADSVKGRFTISRDNSKNTLYLQMNSLRAEDTAVYYCAKFARGVYLFDYWGQGTLVTVSS
VL: QSALTQPASVSGSPGQSITISCTGTSSDVGGYDYVSWYQQHPGTAPKLMISDVHNRPLGVSNRFSGSKSGNTASLTISGLQAEDEADYYCSSYTSSITWVFGGGTKLTVL
notes: also called YU45-G8/H6; #19

EC50 (human IL-11 [3]): 14.2 ng/mL
EC50 (human IL-11 [5]): 198 ng/mL
B5: YU33-B4/YU45-G2/A3 (Fc fusion)
VH: EVQLVESGGGVVQPGRSLRLSCAASGFTFSSYGMHWVRQAPGKGLEWVAVISYDGSNKYYADSVKGRFTISRDNSKNTLYLQMNSLRAEDTAVYYCAKIGATDPLDYWGQGTLVTVSS
VL: B4 VL with D33N, T44K, S51Y, H54S, L58S, S78F, I97S, T98S
notes: tested as scFv-Fc (human IgG1)
